Reference: patent US20220389089A1 (SURFACE ONCOLOGY, published 2022)

Target: T1, IL-27RA on NCI-H2228 lung cancer cells (human, UniProt Q6UWB1 33-636)
T1 sequence: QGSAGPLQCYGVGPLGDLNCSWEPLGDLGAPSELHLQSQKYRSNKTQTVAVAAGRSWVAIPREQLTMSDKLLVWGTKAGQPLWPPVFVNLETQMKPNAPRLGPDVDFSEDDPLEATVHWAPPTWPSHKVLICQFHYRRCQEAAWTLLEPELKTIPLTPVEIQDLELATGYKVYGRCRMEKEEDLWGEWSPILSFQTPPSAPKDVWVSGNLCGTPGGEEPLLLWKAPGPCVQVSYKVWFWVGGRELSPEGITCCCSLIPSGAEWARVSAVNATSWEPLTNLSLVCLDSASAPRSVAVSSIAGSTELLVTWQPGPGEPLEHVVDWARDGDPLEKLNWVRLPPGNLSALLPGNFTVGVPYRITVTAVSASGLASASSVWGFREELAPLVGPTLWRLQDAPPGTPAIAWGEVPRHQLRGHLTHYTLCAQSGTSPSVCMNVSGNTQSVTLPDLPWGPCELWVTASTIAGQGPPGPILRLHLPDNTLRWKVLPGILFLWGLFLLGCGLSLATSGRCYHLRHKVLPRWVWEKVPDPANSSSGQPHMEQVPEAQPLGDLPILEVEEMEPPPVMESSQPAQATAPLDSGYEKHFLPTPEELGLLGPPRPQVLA
Assay: cell-based or functional assay

EC50 of STAT1 phosphorylation (pSTAT1-PE GeoMean, flow cytometry) in NCI-H2228 lung cancer cells cultured with graded concentrations of IL-27: 5.3 ng/mL
B1: recombinant human IL-27 (ligand)
chain 1: RKGPPAALTLPRVQCRASRYPIAVDCSWTLPPAPNSTSPVSFIATYRLGMAARGHSWPCLQQTPTSTSCTITDVQLFSMAPYVLNVTAVHPWGSSSSFVPFITEHIIKPDPPEGVRLSPLAERQLQVQWEPPGSWPFPEIFSLKYWIRYKRQGAARFHRVGPIEATSFILRAVRPRARYYVQVAAQDLTDYGELSDWSLPATATMSLGK
chain 2: FPRPPGRPQLSLQELRREFTVSLHLARKLLSEVRGQAHRFAESHLPGVNLYLLPLGEQLPDVSLTFQAWRRLSDPERLCFISTTLQPFHALLGGLGTQGRWTNMERMQLWAMRLDLRDLQRHLRFQVLAAGFNLPEEEEEEEEEEEEERKGLLPGALGSALQGPAQVSWPQLLSTYRLLHSLELVLSRAVRELLLLSKAGHSVWPLGFPTLSPQP
